T1: APBA2_1, Q99767
T1 sequence (Q99767 563-664, limits assumed, looked up): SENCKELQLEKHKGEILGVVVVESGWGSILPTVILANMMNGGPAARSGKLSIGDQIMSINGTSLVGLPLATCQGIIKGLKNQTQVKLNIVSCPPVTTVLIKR

T2: APBA3_1, O96018
T2 sequence (O96018 389-490, limits assumed, looked up): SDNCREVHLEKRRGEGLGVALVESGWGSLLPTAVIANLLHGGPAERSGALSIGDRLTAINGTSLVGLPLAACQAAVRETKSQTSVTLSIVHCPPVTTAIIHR

T3: DFNB31_2, Q9P202
T3 sequence (Q9P202 274-371, limits assumed, looked up): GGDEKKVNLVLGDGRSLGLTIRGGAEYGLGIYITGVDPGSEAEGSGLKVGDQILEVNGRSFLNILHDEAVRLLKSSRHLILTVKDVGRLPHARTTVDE

T4: GRIP1_7, Q9Y3R0
T4 sequence (Q9Y3R0 999-1096, limits assumed, looked up): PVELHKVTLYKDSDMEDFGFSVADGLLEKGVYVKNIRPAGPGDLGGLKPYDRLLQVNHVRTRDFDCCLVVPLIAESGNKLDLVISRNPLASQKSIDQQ

T5: LRRC7, Q96NW7
T5 sequence (Q96NW7 1440-1537, limits assumed, looked up): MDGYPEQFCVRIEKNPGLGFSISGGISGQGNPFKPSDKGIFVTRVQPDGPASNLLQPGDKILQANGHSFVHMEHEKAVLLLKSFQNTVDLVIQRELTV

T6: MPDZ_10, O75970
T6 sequence (O75970 1624-1722, limits assumed, looked up): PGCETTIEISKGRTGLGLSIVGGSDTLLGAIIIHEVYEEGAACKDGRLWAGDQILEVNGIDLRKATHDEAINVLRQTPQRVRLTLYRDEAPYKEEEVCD

T7: MPDZ_12, O75970
T7 sequence (O75970 1857-1958, limits assumed, looked up): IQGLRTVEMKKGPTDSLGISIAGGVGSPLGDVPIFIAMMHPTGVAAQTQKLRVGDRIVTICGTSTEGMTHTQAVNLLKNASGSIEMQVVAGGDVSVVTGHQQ

T8: NHERF3_1, Q5T2W1
T8 sequence (Q5T2W1 4-100, limits assumed, looked up): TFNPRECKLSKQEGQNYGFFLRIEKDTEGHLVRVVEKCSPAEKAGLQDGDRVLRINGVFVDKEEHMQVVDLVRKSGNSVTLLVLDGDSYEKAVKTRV

T9: PTPN13_1, Q12923
T9 sequence (Q12923 1088-1188, limits assumed, looked up): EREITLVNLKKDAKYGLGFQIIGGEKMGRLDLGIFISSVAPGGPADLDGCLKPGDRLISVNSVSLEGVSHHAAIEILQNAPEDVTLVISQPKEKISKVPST

T10: RHPN1, Q8TCX5
T10 sequence (Q8TCX5 508-602, limits assumed, looked up): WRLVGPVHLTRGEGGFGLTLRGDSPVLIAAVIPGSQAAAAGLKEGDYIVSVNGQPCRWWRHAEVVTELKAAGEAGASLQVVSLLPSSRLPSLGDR

T11: SNTA1, Q13424
T11 sequence (Q13424 82-180, limits assumed, looked up): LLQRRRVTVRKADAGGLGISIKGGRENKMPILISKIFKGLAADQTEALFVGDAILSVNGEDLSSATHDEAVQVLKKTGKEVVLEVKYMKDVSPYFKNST

T12: SYNJ2BP, P57105
T12 sequence (P57105 8-110, limits assumed, looked up): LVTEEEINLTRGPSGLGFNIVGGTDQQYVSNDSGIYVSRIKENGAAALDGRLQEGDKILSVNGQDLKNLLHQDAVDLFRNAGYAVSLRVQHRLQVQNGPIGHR

T13: TJP3_3, O95049
T13 sequence (O95049 375-456, limits assumed, looked up): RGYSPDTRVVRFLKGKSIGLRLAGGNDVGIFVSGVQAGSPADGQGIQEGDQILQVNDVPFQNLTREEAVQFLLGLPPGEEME


Target: T1, APBA2_1, Q99767
Test: holdup assay
Set-up: key: below the threshold = too weak to quantify, mostly under pKd 3.1 to 4
Details: plain residues with an end cap or a label only (N-terminal biotin on a linker: ado-ado)

Binder | pKd
PSHPRLQTHV [KIRREL2, Q6UWL6] | below the threshold
TISFTQTSQF [SLC1A1, P43005] | below the threshold

Target: T2, APBA3_1, O96018
Test: holdup assay
Set-up: key: below the threshold = too weak to quantify, mostly under pKd 3.1 to 4
Details: plain residues with an end cap or a label only (N-terminal biotin on a linker: ado-ado)

Binder | pKd
PSHPRLQTHV [KIRREL2, Q6UWL6] | below the threshold
TISFTQTSQF [SLC1A1, P43005] | below the threshold

Target: CASK, O14936
Test: holdup assay
Set-up: key: below the threshold = too weak to quantify, mostly under pKd 3.1 to 4
Details: plain residues with an end cap or a label only (N-terminal biotin on a linker: ado-ado)

Sequence of CASK, O14936 (O14936 487-570): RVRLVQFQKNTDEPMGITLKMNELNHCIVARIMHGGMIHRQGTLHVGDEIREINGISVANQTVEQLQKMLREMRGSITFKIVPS

Binder | pKd
PSHPRLQTHV [KIRREL2, Q6UWL6] | below the threshold
TISFTQTSQF [SLC1A1, P43005] | below the threshold

Target: T3, DFNB31_2, Q9P202
Test: holdup assay
Set-up: key: below the threshold = too weak to quantify, mostly under pKd 3.1 to 4
Details: plain residues with an end cap or a label only (N-terminal biotin on a linker: ado-ado)

Binder | pKd
PSHPRLQTHV [KIRREL2, Q6UWL6] | below the threshold
TISFTQTSQF [SLC1A1, P43005] | below the threshold

Target: DLG1_1, Q12959
Test: holdup assay
Set-up: key: below the threshold = too weak to quantify, mostly under pKd 3.1 to 4
Details: plain residues with an end cap or a label only (N-terminal biotin on a linker: ado-ado)

Binder | pKd
PSHPRLQTHV [KIRREL2, Q6UWL6] | 4.24
TISFTQTSQF [SLC1A1, P43005] | below the threshold

Target: DLG1_2, Q12959
Test: holdup assay
Set-up: key: below the threshold = too weak to quantify, mostly under pKd 3.1 to 4
Details: plain residues with an end cap or a label only (N-terminal biotin on a linker: ado-ado)

Binder | pKd
PSHPRLQTHV [KIRREL2, Q6UWL6] | 4.65
TISFTQTSQF [SLC1A1, P43005] | 3.83

Target: DLG1_3, Q12959
Test: holdup assay
Set-up: key: below the threshold = too weak to quantify, mostly under pKd 3.1 to 4
Details: plain residues with an end cap or a label only (N-terminal biotin on a linker: ado-ado)

Binder | pKd
PSHPRLQTHV [KIRREL2, Q6UWL6] | below the threshold
TISFTQTSQF [SLC1A1, P43005] | below the threshold

Target: T4, GRIP1_7, Q9Y3R0
Test: holdup assay
Set-up: key: below the threshold = too weak to quantify, mostly under pKd 3.1 to 4
Details: plain residues with an end cap or a label only (N-terminal biotin on a linker: ado-ado)

Binder | pKd
PSHPRLQTHV [KIRREL2, Q6UWL6] | below the threshold
TISFTQTSQF [SLC1A1, P43005] | below the threshold

Target: GRIP2_7, Q9C0E4
Test: holdup assay
Set-up: key: below the threshold = too weak to quantify, mostly under pKd 3.1 to 4
Details: plain residues with an end cap or a label only (N-terminal biotin on a linker: ado-ado)

Sequence of GRIP2_7, Q9C0E4 (Q9C0E4 934-1023): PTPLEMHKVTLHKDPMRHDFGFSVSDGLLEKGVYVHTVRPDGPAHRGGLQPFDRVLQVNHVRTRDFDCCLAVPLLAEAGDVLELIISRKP

Binder | pKd
PSHPRLQTHV [KIRREL2, Q6UWL6] | below the threshold
TISFTQTSQF [SLC1A1, P43005] | below the threshold

Target: Inadl_5, Q8NI35
Test: holdup assay
Set-up: key: below the threshold = too weak to quantify, mostly under pKd 3.1 to 4
Details: plain residues with an end cap or a label only (N-terminal biotin on a linker: ado-ado)

Sequence of Inadl_5, Q8NI35 (Q8NI35 673-780): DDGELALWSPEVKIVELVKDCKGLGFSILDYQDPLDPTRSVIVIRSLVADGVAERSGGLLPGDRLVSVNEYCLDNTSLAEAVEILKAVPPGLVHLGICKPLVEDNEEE

Binder | pKd
PSHPRLQTHV [KIRREL2, Q6UWL6] | below the threshold
TISFTQTSQF [SLC1A1, P43005] | below the threshold

Target: LNX1_3, Q8TBB1
Test: holdup assay
Set-up: key: below the threshold = too weak to quantify, mostly under pKd 3.1 to 4
Details: plain residues with an end cap or a label only (N-terminal biotin on a linker: ado-ado)

Sequence of LNX1_3, Q8TBB1 (Q8TBB1 500-596): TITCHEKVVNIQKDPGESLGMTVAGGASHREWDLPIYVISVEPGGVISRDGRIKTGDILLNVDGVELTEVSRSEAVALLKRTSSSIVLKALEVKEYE

Binder | pKd
PSHPRLQTHV [KIRREL2, Q6UWL6] | below the threshold
TISFTQTSQF [SLC1A1, P43005] | below the threshold

Target: T5, LRRC7, Q96NW7
Test: holdup assay
Set-up: key: below the threshold = too weak to quantify, mostly under pKd 3.1 to 4
Details: plain residues with an end cap or a label only (N-terminal biotin on a linker: ado-ado)

Binder | pKd
PSHPRLQTHV [KIRREL2, Q6UWL6] | below the threshold
TISFTQTSQF [SLC1A1, P43005] | below the threshold

Target: MAGI1_2, Q96QZ7
Test: holdup assay
Set-up: key: below the threshold = too weak to quantify, mostly under pKd 3.1 to 4
Details: plain residues with an end cap or a label only (N-terminal biotin on a linker: ado-ado)

Sequence of MAGI1_2, Q96QZ7 (Q96QZ7 456-580): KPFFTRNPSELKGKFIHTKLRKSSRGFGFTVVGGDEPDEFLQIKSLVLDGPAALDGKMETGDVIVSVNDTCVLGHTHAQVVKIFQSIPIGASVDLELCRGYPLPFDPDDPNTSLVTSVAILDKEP

Binder | pKd
PSHPRLQTHV [KIRREL2, Q6UWL6] | 4.85
TISFTQTSQF [SLC1A1, P43005] | below the threshold

Target: MAGI2_2, Q86UL8
Test: holdup assay
Set-up: key: below the threshold = too weak to quantify, mostly under pKd 3.1 to 4
Details: plain residues with an end cap or a label only (N-terminal biotin on a linker: ado-ado)

Sequence of MAGI2_2, Q86UL8 (Q86UL8 410-522): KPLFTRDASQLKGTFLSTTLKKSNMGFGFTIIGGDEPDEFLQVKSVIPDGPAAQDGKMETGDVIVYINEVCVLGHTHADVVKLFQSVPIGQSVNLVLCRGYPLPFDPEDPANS

Binder | pKd
PSHPRLQTHV [KIRREL2, Q6UWL6] | 4.82
TISFTQTSQF [SLC1A1, P43005] | below the threshold

Target: MAGI2_4, Q86UL8
Test: holdup assay
Set-up: key: below the threshold = too weak to quantify, mostly under pKd 3.1 to 4
Details: plain residues with an end cap or a label only (N-terminal biotin on a linker: ado-ado)

Sequence of MAGI2_4, Q86UL8 (Q86UL8 772-865): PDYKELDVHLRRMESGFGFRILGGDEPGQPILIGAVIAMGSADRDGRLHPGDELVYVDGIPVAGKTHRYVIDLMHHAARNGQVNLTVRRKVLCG

Binder | pKd
PSHPRLQTHV [KIRREL2, Q6UWL6] | 3.62
TISFTQTSQF [SLC1A1, P43005] | 3.58

Target: T6, MPDZ_10, O75970
Test: holdup assay
Set-up: key: below the threshold = too weak to quantify, mostly under pKd 3.1 to 4
Details: plain residues with an end cap or a label only (N-terminal biotin on a linker: ado-ado)

Binder | pKd
PSHPRLQTHV [KIRREL2, Q6UWL6] | below the threshold
TISFTQTSQF [SLC1A1, P43005] | below the threshold

Target: T7, MPDZ_12, O75970
Test: holdup assay
Set-up: key: below the threshold = too weak to quantify, mostly under pKd 3.1 to 4
Details: plain residues with an end cap or a label only (N-terminal biotin on a linker: ado-ado)

Binder | pKd
PSHPRLQTHV [KIRREL2, Q6UWL6] | below the threshold
TISFTQTSQF [SLC1A1, P43005] | below the threshold

Target: T8, NHERF3_1, Q5T2W1
Test: holdup assay
Set-up: key: below the threshold = too weak to quantify, mostly under pKd 3.1 to 4
Details: plain residues with an end cap or a label only (N-terminal biotin on a linker: ado-ado)

Binder | pKd
PSHPRLQTHV [KIRREL2, Q6UWL6] | 4.57
TISFTQTSQF [SLC1A1, P43005] | 4.73

Target: NHERF4_4, Q86UT5
Test: holdup assay
Set-up: key: below the threshold = too weak to quantify, mostly under pKd 3.1 to 4
Details: plain residues with an end cap or a label only (N-terminal biotin on a linker: ado-ado)

Sequence of NHERF4_4, Q86UT5 (Q86UT5 464-550): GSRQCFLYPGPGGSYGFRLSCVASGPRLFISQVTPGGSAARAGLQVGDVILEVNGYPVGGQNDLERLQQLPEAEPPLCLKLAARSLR

Binder | pKd
PSHPRLQTHV [KIRREL2, Q6UWL6] | below the threshold
TISFTQTSQF [SLC1A1, P43005] | below the threshold

Target: PDZRN4_1, Q6ZMN7
Test: holdup assay
Set-up: key: below the threshold = too weak to quantify, mostly under pKd 3.1 to 4
Details: plain residues with an end cap or a label only (N-terminal biotin on a linker: ado-ado)

Sequence of PDZRN4_1, Q6ZMN7 (Q6ZMN7 213-318): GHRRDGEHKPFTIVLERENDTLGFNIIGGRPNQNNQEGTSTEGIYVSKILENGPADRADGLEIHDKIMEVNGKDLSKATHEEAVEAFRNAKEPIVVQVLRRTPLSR

Binder | pKd
PSHPRLQTHV [KIRREL2, Q6UWL6] | below the threshold
TISFTQTSQF [SLC1A1, P43005] | below the threshold

Target: T9, PTPN13_1, Q12923
Test: holdup assay
Set-up: key: below the threshold = too weak to quantify, mostly under pKd 3.1 to 4
Details: plain residues with an end cap or a label only (N-terminal biotin on a linker: ado-ado)

Binder | pKd
PSHPRLQTHV [KIRREL2, Q6UWL6] | below the threshold
TISFTQTSQF [SLC1A1, P43005] | below the threshold

Target: T10, RHPN1, Q8TCX5
Test: holdup assay
Set-up: key: below the threshold = too weak to quantify, mostly under pKd 3.1 to 4
Details: plain residues with an end cap or a label only (N-terminal biotin on a linker: ado-ado)

Binder | pKd
PSHPRLQTHV [KIRREL2, Q6UWL6] | 4.11
TISFTQTSQF [SLC1A1, P43005] | 3.73

Target: T11, SNTA1, Q13424
Test: holdup assay
Set-up: key: below the threshold = too weak to quantify, mostly under pKd 3.1 to 4
Details: plain residues with an end cap or a label only (N-terminal biotin on a linker: ado-ado)

Binder | pKd
PSHPRLQTHV [KIRREL2, Q6UWL6] | below the threshold
TISFTQTSQF [SLC1A1, P43005] | below the threshold

Target: T12, SYNJ2BP, P57105
Test: holdup assay
Set-up: key: below the threshold = too weak to quantify, mostly under pKd 3.1 to 4
Details: plain residues with an end cap or a label only (N-terminal biotin on a linker: ado-ado)

Binder | pKd
PSHPRLQTHV [KIRREL2, Q6UWL6] | 4.48
TISFTQTSQF [SLC1A1, P43005] | below the threshold

Target: T13, TJP3_3, O95049
Test: holdup assay
Set-up: key: below the threshold = too weak to quantify, mostly under pKd 3.1 to 4
Details: plain residues with an end cap or a label only (N-terminal biotin on a linker: ado-ado)

Binder | pKd
PSHPRLQTHV [KIRREL2, Q6UWL6] | below the threshold
TISFTQTSQF [SLC1A1, P43005] | below the threshold
